Among the data in patent US5633451 are Thermal Hysteresis (°C.) of a 4 mg/ml THP solution values, retold here.

For this experiment, the target named is Dendroides canadensis thermal hysteresis proteins (purified THPs).
The substance Tipula lipoprotein ice-nucleator (LPIN) gave a Thermal Hysteresis (°C.) of a 4 mg/ml THP solution of 3.49 °C.

In turn, Gelatin showed a Thermal Hysteresis (°C.) of a 4 mg/ml THP solution of 3.13 °C.

Tipula ice-nucleator protein PIN: the Thermal Hysteresis (°C.) of a 4 mg/ml THP solution amounted to 3.98 °C.
